This data set has as its target T1, variant nuclease SEQ ID NO: 53 (P14R, D32R, I61R, E311R, T338G, E736G).
T1 chain: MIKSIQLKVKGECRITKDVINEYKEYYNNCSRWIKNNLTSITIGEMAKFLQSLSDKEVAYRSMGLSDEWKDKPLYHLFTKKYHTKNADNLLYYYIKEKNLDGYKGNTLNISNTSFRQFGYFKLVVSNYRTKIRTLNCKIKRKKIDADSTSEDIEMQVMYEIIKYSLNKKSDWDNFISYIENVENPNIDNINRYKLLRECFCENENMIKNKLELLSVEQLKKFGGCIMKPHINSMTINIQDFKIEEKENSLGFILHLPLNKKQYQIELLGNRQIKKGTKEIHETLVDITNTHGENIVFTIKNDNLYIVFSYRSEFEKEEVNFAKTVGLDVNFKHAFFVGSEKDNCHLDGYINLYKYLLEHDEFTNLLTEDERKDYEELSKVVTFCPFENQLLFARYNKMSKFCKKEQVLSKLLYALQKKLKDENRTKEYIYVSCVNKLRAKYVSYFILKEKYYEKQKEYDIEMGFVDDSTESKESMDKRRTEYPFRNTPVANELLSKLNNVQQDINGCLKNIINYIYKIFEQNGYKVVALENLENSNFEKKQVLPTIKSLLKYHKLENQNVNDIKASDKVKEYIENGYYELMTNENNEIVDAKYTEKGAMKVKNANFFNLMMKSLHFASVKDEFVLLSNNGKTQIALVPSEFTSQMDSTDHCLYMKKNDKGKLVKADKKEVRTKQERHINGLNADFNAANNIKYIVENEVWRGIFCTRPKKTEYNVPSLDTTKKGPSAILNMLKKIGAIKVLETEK
Briefly: cell_activity; nearly 0.6; HEK293T; PAM 5'-TTTG-3'. As to conditions: tags: pcDNA3.1 expression. The procedure:
Approximately 16 hours prior to transfection, 25,000 HEK293T cells in DMEM/10% FBS+Pen/Strep (D10 media) were plated into each well of a 96-well plate. On the day of transfection, the cells were 70-90% confluent. For each well to be transfected, a mixture of Lipofectamine 2000™ and Opti-MEM™ was prepared and incubated at room temperature for 5 minutes (Solution 1). After incubation, the Lipofectamine 2000™:Opti-MEM™ mixture was added to a separate mixture containing nuclease plasmid, RNA guide plasmid, and Opti-MEM™ (Solution 2). In the case of negative controls, the RNA guide plasmid was not included in Solution 2. Solutions 1 and 2 were mixed by pipetting up and down, then incubated at room temperature for 25 minutes. Following incubation, the Solution 1 and 2 mixture was added dropwise to each well of a 96-well plate containing the cells. Approximately 72 hours post transfection, cells were trypsinized by adding TrypLE™ to the center of each well and incubating at 37° C. for approximately 5 minutes. D10 media was then added to each well and mixed to resuspend cells. The resuspended cells were centrifuged at 500 g for 10 minutes to obtain a pellet, and the supernatant was discarded. The cell pellet was then resuspended in QuickExtract™ buffer (Lucigen®), and cells were incubated at 65° C. for 15 minutes, 68° C. for 15 minutes, and 98° C. for 10 minutes. […]

B1: VEGFA_T1 crRNA ; VEGFA_T1 target (ssRNA ; dsDNA)
RNA: CCUGUUGUGAAUACUCUUUUAUAGGUAUCAAACAACUCCUGGUGAAAGGCAGCCCU
DNA 1: TCCTGGTGAAAGGCAGCCCT
DNA 2: AGGGCTGCCTTTCACCAGGA
Molecule B1 had an activity of about 0.6 indel ratio.

Source of the values: US20240035010, “COMPOSITIONS COMPRISING A VARIANT POLYPEPTIDE AND USES THEREOF” (Arbor Biotechnologies, Inc., published 2024).
